Measurements from patent publication US8501181B2, “Compositions and methods for treating osteolytic disorders comprising MMP-14 binding proteins” (Dyax Corp., priority 2007, dated 2013).

Key:
Raw 264.7 cells = test: Osteoclastogenesis (TRAP staining) and bone resorption (pits) on osteologic slides, RANK ligand-stimulated; format: cell-based, Mouse; settings: Raw 264.7 cells + 100 ng/ml murine soluble RANK ligand, 6 days; GM6001 5, 10, 25 μM; 539A-M0240-B03 10, 50 μg/ml; 539A-M0237-D02 10, 100 μg/ml; dose-dependent; data not shown
Procedure: Cells. […] Cells between passage 3-7 were used in this study.
Materials. […] Tartrate-resistant acid phosphatase (TRAP) staining kit was obtained from KAMIYA BIOMEDICA COMPANY™, Seattle Wash. (Catalog #KT-008). GM6001 was obtained from MILLIPORE™.
Methods. Approximately 2000 Raw 264.7 cells per slide were seeded onto osteologic multitest slides with complete growth medium. […] The slides were then incubated at 37° C. for 6 days, replacing fresh media on day 3 as described above. At the end of incubation time, one side of the slide was stained for TRAP and the other side of the slide was bleached (10% bleach), washed several times with water, and air dried. The slides were then viewed under the microscope for either multinucleated TRAP positive cells or resorbed areas (pits). Cells incubated with media only and recombinant osteoprotegerin (rH OPG) (100 ng/ml) served as negative and positive controls, respectively.

MMP-14 = MMP-14 (Homo sapiens, UniProt P50281); test: MMP-14 inhibition (statement, no method given); format: biochemical
[1] = tested on: PC-3 prostate cancer cells; test: PC-3 prostate cancer model, intra-tibial inoculation, osteolytic lesions; format: in vivo; settings: mice, intra-tibial PC-3 cells; 10 mg/kg Q2D for 14 days, started 3 days after inoculation; vs PBS control; X-ray and bone histomorphometric analysis
Procedure: PC-3 prostate cancer cells were inoculated intra-tibially into mice. Treatment was initiated 3 days after intra-tibial inoculation of the cells. DX-2400 (10 mg/kg) and a PBS control were administered Q2D for 14 days.

MMP-9 [2] = target: T1, MMP-9 (Homo sapiens, UniProt P14780); test: Inhibition of human MMP-9 activity (statement, no method given); format: biochemical
Target sequence in this assay (P14780 94-707): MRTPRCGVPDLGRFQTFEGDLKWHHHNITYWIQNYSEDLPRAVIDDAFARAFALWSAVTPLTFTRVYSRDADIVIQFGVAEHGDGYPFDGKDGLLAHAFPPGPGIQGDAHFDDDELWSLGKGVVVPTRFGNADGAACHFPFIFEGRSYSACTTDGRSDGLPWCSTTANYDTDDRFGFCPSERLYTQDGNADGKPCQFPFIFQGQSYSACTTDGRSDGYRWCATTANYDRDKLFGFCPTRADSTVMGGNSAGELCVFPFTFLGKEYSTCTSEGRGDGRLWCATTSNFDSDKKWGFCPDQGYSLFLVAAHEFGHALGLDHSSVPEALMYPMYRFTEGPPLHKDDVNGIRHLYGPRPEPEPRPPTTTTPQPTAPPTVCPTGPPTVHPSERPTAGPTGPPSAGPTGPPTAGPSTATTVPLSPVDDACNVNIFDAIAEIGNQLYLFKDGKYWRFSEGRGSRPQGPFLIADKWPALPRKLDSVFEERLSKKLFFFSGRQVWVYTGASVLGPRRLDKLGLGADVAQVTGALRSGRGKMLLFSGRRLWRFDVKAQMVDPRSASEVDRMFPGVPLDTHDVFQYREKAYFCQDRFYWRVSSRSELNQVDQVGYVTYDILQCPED

MMP-9 [3] = target: T1, MMP-9; test: MMP-9 inhibition, selectivity (statement, no method given); format: biochemical
Target sequence in this assay (P14780 94-707, species assumed): as the sequence (P14780 94-707) above

mouse MMP-9 = mouse MMP-9 (Mus musculus, UniProt P41245); test: Inhibition of mouse MMP-9 activity (statement, no method given); format: biochemical
Chain of mouse MMP-9 (P41245 108-730): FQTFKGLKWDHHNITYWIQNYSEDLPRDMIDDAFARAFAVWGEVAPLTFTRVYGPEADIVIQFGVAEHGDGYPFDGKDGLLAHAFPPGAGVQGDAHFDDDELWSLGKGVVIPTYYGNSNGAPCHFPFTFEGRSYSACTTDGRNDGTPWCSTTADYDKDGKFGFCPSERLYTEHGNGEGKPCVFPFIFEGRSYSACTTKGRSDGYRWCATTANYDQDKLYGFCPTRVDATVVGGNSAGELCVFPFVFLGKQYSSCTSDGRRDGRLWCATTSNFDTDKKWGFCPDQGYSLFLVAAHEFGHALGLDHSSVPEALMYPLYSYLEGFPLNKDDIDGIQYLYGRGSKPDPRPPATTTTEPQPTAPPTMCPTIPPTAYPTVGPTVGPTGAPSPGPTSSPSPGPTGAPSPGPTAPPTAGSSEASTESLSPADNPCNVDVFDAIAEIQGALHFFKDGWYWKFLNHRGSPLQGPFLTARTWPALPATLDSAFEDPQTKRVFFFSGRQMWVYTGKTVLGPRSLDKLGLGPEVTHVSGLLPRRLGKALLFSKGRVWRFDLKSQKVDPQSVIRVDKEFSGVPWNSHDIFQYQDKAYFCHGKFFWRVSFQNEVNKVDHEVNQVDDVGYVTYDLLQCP

Molecule: CNC(=O)[C@H](Cc1c[nH]c2ccccc12)NC(=O)[C@@H](CC(=O)NO)CC(C)C [GM6001, reference compound]
- effect on bone resorption (number of resorbed areas, pits) (Raw 264.7 cells): inhibitory effects
- effect on osteoclastogenesis (TRAP-positive staining) (Raw 264.7 cells): inhibitory effects

B1: DX-2400: exemplary MMP-14 antibody; VH SEQ ID NO: 22, VL SEQ ID NO: 23; shares HC and LC CDRs with M0038-F01 (antibody, V domains shown)
VH: EVQLLESGGGLVQPGGSLRLSCAASGFTFSLYSMNWVRQAPGKGLEWVSSIYSSGGSTLYADSVKGRFTISRDNSKNTLYLQMNSLRAEDTAVYYCARGRAFDIWGQGTMVTVSS
VL: DIQMTQSPSSLSASVGDRVTITCRASQSVGTYLNWYQQKPGKAPKLLIYATSNLRSGVPSRFSGSGSGTDFTLTISSLQPEDFATYYCQQSYSIPRFTFGPGTKVDIK
notes: exemplary MMP-14 antibody; shares HC and LC CDRs with M0038-F01
- selectivity of MMP-14 inhibition (MMP-14): selective inhibitor of MMP-14
- reduction of the area of the osteolytic lesions [1]: about 3 fold

B2: 539A-M0240-B03: exemplary MMP-9 antibody; LC CDRs SEQ ID NO: 14-16, HC CDRs SEQ ID NO: 17-19 (antibody, V domains shown)
VL: QYELTQPRSVSGSPGQSVTISCTGTSSDVGGYNYVSWYQQHPGKAPKLMIYDVSKRPSGVPDRFSGSKSGNTASLTISGLQAEDEADYYCCSYAGSYTLVFGGGTKLTVL
VH: EVQLLESGGGLVQPGGSLRLSCAASGFTFSTYQMVWVRQAPGKGLEWVSVIYPSGGPTVYADSVKGRFTISRDNSKNTLYLQMNSLRAEDTAVYYCARGEDYYDSSGPGAFDIWGQGTMVTVSS
- effect on activity of human MMP-9 (MMP-9 [2]): can decrease or inhibit the activity
- effect on bone resorption (number of resorbed areas, pits) (Raw 264.7 cells): inhibitory effects
- effect on osteoclastogenesis (TRAP-positive staining) (Raw 264.7 cells): inhibitory effects
- selectivity of MMP-9 inhibition (MMP-9 [3]): selective inhibitor of MMP-9
- effect on activity of mouse MMP-9 (mouse MMP-9): can decrease or inhibit the activity
